Reference: the supplement of paper PMC10065799, “High-throughput profiling of sequence recognition by tyrosine kinases and SH2 domains using bacterial peptide display” (eLife, 2023)

Key:
Grb2 SH2 = Grb2 SH2 (UniProt P62993); assay: SH2 binding enrichment of the phosphorylated peptide, bacterial display (enrichment ratio); higher = better substrate or ligand; peptides without Tyr show the background
c-Src SH2 = assay: as above
SHP2-C SH2 = assay: as above
c-Src = assay: phosphorylation enrichment, bacterial display (enrichment ratio); higher = better substrate or ligand; peptides without Tyr show the background
AncSZ = assay: as above
EPHB1 = EPHB1 (UniProt P54762); assay: as above
Fes = Fes (UniProt P07332); assay: as above
Chain of Fes (P07332 whole entry, looked up): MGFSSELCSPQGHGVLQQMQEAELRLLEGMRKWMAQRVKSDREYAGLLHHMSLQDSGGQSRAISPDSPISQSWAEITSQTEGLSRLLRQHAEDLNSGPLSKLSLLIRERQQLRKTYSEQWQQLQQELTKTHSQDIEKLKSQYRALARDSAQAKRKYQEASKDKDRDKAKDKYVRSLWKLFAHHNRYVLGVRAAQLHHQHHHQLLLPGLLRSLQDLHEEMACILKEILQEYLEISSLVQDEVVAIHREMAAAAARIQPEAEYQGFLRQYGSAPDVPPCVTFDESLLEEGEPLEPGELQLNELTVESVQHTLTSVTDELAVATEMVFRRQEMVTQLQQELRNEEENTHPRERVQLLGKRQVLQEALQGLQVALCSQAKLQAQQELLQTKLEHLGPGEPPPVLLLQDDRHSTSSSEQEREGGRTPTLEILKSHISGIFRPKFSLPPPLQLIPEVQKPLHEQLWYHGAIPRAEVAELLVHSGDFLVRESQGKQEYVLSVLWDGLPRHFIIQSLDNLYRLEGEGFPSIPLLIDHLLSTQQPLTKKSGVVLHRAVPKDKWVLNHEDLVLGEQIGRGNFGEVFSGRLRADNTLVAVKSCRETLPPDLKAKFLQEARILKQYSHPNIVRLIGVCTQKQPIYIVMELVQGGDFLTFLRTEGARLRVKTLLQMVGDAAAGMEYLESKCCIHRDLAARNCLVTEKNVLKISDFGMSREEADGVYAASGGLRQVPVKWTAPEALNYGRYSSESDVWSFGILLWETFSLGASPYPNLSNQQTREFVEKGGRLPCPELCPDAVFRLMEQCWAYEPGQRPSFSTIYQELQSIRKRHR

Fyn = Fyn (UniProt P06241); assay: as above
Jak2 = Jak2 (UniProt O60674); assay: as above
Chain of Jak2 (O60674 whole entry, looked up): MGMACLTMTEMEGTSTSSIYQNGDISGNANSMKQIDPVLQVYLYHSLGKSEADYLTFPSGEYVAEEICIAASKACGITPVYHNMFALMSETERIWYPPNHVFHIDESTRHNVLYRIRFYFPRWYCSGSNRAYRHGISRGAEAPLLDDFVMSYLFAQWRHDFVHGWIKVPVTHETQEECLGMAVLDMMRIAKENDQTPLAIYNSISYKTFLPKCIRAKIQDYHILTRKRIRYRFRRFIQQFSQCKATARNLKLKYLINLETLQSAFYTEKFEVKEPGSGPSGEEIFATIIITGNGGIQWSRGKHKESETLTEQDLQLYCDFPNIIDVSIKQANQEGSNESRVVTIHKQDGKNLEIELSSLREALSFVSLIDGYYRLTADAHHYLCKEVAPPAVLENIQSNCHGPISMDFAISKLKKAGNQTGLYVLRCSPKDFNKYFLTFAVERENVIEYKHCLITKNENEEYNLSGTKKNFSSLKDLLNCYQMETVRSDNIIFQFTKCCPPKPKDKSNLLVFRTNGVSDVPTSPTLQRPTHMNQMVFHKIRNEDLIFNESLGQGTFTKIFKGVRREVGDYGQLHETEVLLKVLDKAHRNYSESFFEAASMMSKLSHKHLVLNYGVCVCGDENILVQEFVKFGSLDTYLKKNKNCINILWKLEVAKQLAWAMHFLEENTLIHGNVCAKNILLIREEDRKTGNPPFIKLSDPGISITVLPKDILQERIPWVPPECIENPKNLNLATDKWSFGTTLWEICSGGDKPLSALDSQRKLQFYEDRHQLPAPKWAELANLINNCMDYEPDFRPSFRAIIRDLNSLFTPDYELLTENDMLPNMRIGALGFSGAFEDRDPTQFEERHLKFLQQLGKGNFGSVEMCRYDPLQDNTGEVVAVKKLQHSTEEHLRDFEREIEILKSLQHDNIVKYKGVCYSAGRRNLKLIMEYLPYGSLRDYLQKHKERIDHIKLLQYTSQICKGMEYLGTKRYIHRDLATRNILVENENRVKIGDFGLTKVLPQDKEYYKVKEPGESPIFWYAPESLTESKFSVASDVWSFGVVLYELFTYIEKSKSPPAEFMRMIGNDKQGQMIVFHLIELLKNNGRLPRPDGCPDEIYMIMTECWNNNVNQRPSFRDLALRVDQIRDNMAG

Hck = Hck (UniProt P08631); assay: as above
Chain of Hck (P08631 whole entry, looked up): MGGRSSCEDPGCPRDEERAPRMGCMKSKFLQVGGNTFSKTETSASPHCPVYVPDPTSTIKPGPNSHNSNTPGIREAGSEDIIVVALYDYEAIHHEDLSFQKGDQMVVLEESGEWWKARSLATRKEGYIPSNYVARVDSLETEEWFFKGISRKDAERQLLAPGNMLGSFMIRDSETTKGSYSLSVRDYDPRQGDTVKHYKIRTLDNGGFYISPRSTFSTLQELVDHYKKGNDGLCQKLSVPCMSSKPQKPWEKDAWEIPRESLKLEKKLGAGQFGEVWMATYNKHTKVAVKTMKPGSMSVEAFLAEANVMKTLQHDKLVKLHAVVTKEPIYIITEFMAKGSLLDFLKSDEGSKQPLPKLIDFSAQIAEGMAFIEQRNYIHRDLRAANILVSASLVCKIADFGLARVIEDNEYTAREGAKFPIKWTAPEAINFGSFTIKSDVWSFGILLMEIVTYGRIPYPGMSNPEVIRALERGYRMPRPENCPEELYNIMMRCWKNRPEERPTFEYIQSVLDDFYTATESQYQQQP

EPHB2 = EPHB2 (UniProt P29323); assay: as above
Chain of EPHB2 (P29323 whole entry, looked up): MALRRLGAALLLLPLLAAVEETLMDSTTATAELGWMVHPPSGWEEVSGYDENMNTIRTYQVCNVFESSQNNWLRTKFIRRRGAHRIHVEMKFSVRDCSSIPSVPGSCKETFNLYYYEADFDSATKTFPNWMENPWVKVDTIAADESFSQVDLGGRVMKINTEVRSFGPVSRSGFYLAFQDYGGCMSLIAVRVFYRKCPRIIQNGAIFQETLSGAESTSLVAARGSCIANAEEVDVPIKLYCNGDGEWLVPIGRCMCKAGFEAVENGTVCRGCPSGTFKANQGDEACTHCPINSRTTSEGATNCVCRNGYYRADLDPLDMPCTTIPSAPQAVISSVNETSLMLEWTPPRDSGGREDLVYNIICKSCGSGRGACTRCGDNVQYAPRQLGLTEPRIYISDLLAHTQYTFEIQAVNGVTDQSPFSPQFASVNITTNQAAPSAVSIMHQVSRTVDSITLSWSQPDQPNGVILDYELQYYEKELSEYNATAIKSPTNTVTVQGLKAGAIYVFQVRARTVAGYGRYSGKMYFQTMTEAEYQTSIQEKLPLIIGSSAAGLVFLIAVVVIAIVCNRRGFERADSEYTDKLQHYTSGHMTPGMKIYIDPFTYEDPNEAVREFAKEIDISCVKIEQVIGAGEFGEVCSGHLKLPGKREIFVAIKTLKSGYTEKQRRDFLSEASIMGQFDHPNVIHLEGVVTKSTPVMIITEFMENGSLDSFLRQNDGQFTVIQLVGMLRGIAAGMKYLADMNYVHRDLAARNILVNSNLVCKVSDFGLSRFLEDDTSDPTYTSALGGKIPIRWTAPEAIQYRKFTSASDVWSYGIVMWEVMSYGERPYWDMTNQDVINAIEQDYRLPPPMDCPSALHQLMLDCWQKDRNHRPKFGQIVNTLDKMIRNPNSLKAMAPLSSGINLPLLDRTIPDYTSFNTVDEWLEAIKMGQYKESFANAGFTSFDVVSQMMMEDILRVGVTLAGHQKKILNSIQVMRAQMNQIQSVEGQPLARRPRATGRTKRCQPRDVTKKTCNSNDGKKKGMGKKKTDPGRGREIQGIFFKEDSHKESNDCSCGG

FGFR3 = FGFR3 (UniProt P22607); assay: as above
c-Abl (mouse) = assay: as above
Fer (mouse) = assay: as above
FGFR1 = FGFR1 (UniProt P11362); assay: as above
MERTK = MERTK (UniProt Q12866); assay: as above
Chain of MERTK (Q12866 whole entry, looked up, the tested form may be a part): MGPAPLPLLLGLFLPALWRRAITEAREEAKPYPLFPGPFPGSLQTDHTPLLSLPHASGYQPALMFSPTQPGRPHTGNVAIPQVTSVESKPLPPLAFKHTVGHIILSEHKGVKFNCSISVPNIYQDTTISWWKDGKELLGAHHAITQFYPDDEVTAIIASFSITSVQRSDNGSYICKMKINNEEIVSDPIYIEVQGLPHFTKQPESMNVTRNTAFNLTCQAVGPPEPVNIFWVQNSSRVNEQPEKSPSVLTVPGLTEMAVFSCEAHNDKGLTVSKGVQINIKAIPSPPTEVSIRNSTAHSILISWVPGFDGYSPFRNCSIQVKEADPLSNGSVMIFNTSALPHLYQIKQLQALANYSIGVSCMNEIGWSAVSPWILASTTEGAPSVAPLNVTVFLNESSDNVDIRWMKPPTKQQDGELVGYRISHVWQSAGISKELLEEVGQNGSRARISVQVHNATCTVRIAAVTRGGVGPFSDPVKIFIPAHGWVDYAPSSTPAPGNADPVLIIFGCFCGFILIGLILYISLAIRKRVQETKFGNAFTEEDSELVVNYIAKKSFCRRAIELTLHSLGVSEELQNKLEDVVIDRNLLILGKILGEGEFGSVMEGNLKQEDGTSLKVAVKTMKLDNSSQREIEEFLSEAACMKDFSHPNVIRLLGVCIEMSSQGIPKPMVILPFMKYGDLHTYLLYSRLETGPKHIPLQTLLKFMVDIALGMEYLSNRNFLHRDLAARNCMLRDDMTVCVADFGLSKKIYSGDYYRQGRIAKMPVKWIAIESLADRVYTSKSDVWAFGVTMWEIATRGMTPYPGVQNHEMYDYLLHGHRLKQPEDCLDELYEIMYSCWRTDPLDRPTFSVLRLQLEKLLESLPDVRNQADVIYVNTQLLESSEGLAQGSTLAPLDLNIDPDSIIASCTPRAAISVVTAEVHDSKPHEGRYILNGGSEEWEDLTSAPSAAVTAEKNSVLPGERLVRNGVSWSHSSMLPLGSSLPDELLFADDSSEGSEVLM
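Wherever SH2 binding enrichment of the phosphorylated peptide, bacterial display is given: peptide library displayed on the E. coli surface as eCPX fusions, selected cells deep-sequenced, score is each peptide's frequency after selection divided by its frequency in the input.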
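Wherever phosphorylation enrichment, bacterial display is given: 11-residue human phosphosite peptides and single-mutation variants displayed on the E. coli surface, counted by deep sequencing, each peptide's frequency after selection divided by its frequency in the unselected input library; frequency after pTyr selection over input frequency; kinase dosed for 20-30% of maximal phosphorylation in three min.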

Chain of Grb2 SH2 (P62993 whole entry, looked up): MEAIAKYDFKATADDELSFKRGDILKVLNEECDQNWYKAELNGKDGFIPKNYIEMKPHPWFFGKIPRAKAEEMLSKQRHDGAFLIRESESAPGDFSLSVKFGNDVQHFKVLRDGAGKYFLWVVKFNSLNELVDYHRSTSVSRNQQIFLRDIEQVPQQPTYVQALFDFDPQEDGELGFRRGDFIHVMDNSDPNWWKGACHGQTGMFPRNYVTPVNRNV

Row | Sequence | SH2 binding enrichment (Grb2 SH2) | SH2 binding enrichment (c-Src SH2) | SH2 binding enrichment (SHP2-C SH2) | phosphorylation enrichment (c-Src) | phosphorylation enrichment (AncSZ) | phosphorylation enrichment (EPHB1) | phosphorylation enrichment (Fes) | phosphorylation enrichment (Fyn) | phosphorylation enrichment (Jak2) | phosphorylation enrichment (Hck) | phosphorylation enrichment (EPHB2) | phosphorylation enrichment (FGFR3) | phosphorylation enrichment (c-Abl (mouse)) | phosphorylation enrichment (Fer (mouse)) | phosphorylation enrichment (FGFR1) | phosphorylation enrichment (MERTK)
1 | HKLSYCEYDFE [BTK_Y40_Y40C] | 1.3 | 0.914 | 0.68 | 2.46 | 1.78 | 0.857 | 1.76 | 1.68 | 1.29 | 0.746 | 1.14 | 1.34 | 0.871 | 0.687 | 0.762 | 0.535
2 | NKEPRYQEEPP [TJP2_Y479_D482E] | 1.07 | 0.568 | 0.644 | 0.421 | 1.1 | 0.499 | 1.18 | 0.507 | 0.915 | 0.508 | 0.67 | 0.685 | 0.907 | 0.43 | 0.444 | 0.501
3 | LEAVSYSSPFA [RNLS_Y190_R193P_YF] | 0.911 | 1.26 | 3.49 | 0.652 | 1.23 | 0.736 | 1.06 | 0.791 | 0.952 | 0.615 | 0.908 | 0.661 | 2.62 | 0.396 | 1.12 | 0.658
4 | KLKEKYQKDIA [HMGB1_Y155_E156Q] | 1.24 | 1.11 | 1.91 | 0.582 | 0.57 | 0.454 | 0.996 | 0.465 | 1.47 | 0.487 | 0.588 | 1.21 | 1.24 | 0.522 | 0.565 | 0.557
5 | LSQQVYRVNLS [FAT4_Y480_F475L] | 0.764 | 0.422 | 0.67 | 0.836 | 0.821 | 0.532 | 0.751 | 0.616 | 0.647 | 0.521 | 0.622 | 0.631 | 0.637 | 0.572 | 0.428 | 0.792
6 | ALWYIYSHTRS [ENG_Y614] | 0.931 | 0.451 | 0.711 | 0.423 | 1.1 | 0.679 | 1.33 | 0.47 | 1.14 | 0.523 | 0.768 | 1.03 | 0.807 | 0.572 | 0.487 | 0.418
7 | RPFVFYFSFLL [PTEN_Y177_R173P_YF] | 2.27 | 0.918 | 1.02 | 0.982 | 1.29 | 0.838 | 1.29 | 0.76 | 1.55 | 0.867 | 0.483 | 0.835 | 1.29 | 0.587 | 0.589 | 0.641
8 | ARLEFCENEKK [IRS1_Y47_Y47C_YF] | 0.743 | 0.626 | 0.686 | 0.484 | 0.983 | 0.636 | 1.23 | 0.515 | 1.02 | 0.402 | 0.575 | 0.926 | 0.868 | 0.568 | 0.581 | 0.434
9 | KFACSYTPVKA [FLNB_Y708_T703K_YF] | 0.862 | 0.978 | 1.99 | 0.459 | 0.811 | 0.521 | 0.895 | 0.472 | 0.747 | 0.509 | 0.502 | 0.579 | 0.577 | 0.462 | 0.497 | 0.481
10 | LEEFQYIGESQ [MSH2_Y856] | 0.842 | 0.535 | 0.688 | 0.882 | 2.09 | 1.03 | 1.62 | 0.722 | 2.43 | 0.558 | 1.19 | 1.11 | 1.25 | 0.918 | 0.733 | 0.61
11 | SECCKYKIDNL [OSMR_Y689_P694L] | 0.739 | 0.43 | 0.477 | 0.436 | 0.864 | 0.551 | 0.939 | 0.446 | 0.823 | 0.428 | 0.384 | 0.685 | 0.748 | 0.473 | 0.462 | 0.432
12 | IQRSLYDCPAS [PDGFRA_Y762_R764C] | 0.783 | 2.57 | 1.04 | 0.81 | 1.38 | 2.37 | 0.973 | 0.732 | 0.825 | 2.25 | 2.5 | 0.706 | 1.47 | 4.18 | 0.592 | 3.85
13 | DKATEYIQYMR [MAX_Y70] | 0.938 | 0.469 | 1.4 | 0.486 | 0.852 | 0.448 | 0.622 | 0.624 | 0.625 | 0.504 | 0.451 | 0.572 | 0.499 | 0.394 | 0.479 | 0.4
14 | AHPIIYTIIEA [PYKtide_no-pT_2014] | 1.21 | 1.5 | 1.66 | 3.47 | 0.892 | 5.42 | 1.21 | 3.29 | 0.838 | 2.74 | 1.3 | 1.44 | 1.85 | 3.1 | 1.57 | 7.03
15 | NVVVPYEPPEV [TP53_Y220_S215N] | 0.757 | 0.742 | 0.607 | 0.543 | 1.11 | 0.612 | 1.15 | 0.641 | 1.11 | 0.56 | 0.708 | 0.69 | 0.768 | 0.58 | 0.443 | 0.493
16 | ARGTRYRFVSQ [UCN3_Y95_YF] | 0.627 | 0.458 | 0.407 | 0.607 | 0.597 | 0.416 | 0.548 | 0.52 | 0.742 | 0.546 | 0.41 | 0.535 | 0.63 | 0.492 | 0.483 | 0.48
